In patent US20200255522A1 (published 2020):

T1: VEGF (UniProt P15692-9 27-147)
T1 construct: also called VEGF121
T1 sequence (looked up): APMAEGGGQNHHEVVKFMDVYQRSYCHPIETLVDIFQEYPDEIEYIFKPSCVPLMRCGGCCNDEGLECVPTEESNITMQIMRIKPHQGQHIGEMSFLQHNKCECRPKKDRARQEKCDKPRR


Tests used:
VEGF [1] = target: T1, VEGF; test: bridging ELISA, capture VEGF, detection biocytinamid-Cy5 or digoxygenin-Cy5
VEGF [2] = target: T1, VEGF; test: bridging ELISA of exchange reaction mix: capture VEGF, detection digoxygenin-Cy5; signal needs both specificities; highest value = 100%, input 1.3 µM
VEGF [3] = target: T1, VEGF; test: bridging ELISA of exchange reaction mix: capture VEGF, detection biocytinamid-Cy5; signal needs both specificities; highest value = 100%, input 1.3 µM

Binder	binding result (VEGF [1])	relative signal intensity (VEGF [2]) [%]	relative signal intensity (VEGF [3]) [%]
bsAb from exchange reaction between anti-dig 2/3-IgG (MHCFcRP-knob-E357K) and anti-PDGF 2/3-IgG (MHCFcRP-hole-K370E) (bispecific antibody, not shown: small tags and cut ends, Exchange product as applied in the reaction mix; also called dig PDGF) heavy 1: QVQLVESGGGLVKPGGSLRLSCAASGFTFSDYAMSWIRQAPGKGLEWVSSINIGATYIYYADSVKGRFTISRDNAKNSLYLQMNSLRAEDTAVYYCARPGSPYEYDKAYYSMAYWGQGTTVTVSSASTKGPSVFPLAPSSKSTSGGTAALGCLVKDYFPEPVTVSWNSGALTSGVHTFPAVLQSSGLYSLSSVVTVPSSSLGTQTYICNVNHKPSNTKVDKKVEPKSC light 1: not shown heavy 2: EVQLVESGGGLVQPGGSLRLSCAASGFTFSSYWMSWVRQAPEKGLEWVSTISDGGGLTYYADSVKGRFTISRDNAKNSLYLQMNSLRAEDTAVYYCAESGGYTDWLFGYWGQGTLVTVSSASTKGPSVFPLAPSSKSTSGGTAALGCLVKDYFPEPVTVSWNSGALTSGVHTFPAVLQSSGLYSLSSVVTVPSSSLGTQTYICNVNHKPSNTKVDKKVEPKSC light 2: not shown	no binding (tested: 1.3 µM input molecule concentration)	7	9.9
bsAb from exchange reaction between anti-PDGF 2/3-IgG (MHCFcRP-knob-E357K) and anti-dig 2/3-IgG (MHCFcRP-hole-K370E) (bispecific antibody, not shown: small tags and cut ends, Exchange product as applied in the reaction mix; also called PDGF dig) heavy 1: EVQLVESGGGLVQPGGSLRLSCAASGFTFSSYWMSWVRQAPEKGLEWVSTISDGGGLTYYADSVKGRFTISRDNAKNSLYLQMNSLRAEDTAVYYCAESGGYTDWLFGYWGQGTLVTVSSASTKGPSVFPLAPSSKSTSGGTAALGCLVKDYFPEPVTVSWNSGALTSGVHTFPAVLQSSGLYSLSSVVTVPSSSLGTQTYICNVNHKPSNTKVDKKVEPKSC light 1: not shown heavy 2: QVQLVESGGGLVKPGGSLRLSCAASGFTFSDYAMSWIRQAPGKGLEWVSSINIGATYIYYADSVKGRFTISRDNAKNSLYLQMNSLRAEDTAVYYCARPGSPYEYDKAYYSMAYWGQGTTVTVSSASTKGPSVFPLAPSSKSTSGGTAALGCLVKDYFPEPVTVSWNSGALTSGVHTFPAVLQSSGLYSLSSVVTVPSSSLGTQTYICNVNHKPSNTKVDKKVEPKSC light 2: not shown	no binding (tested: 1.3 µM input molecule concentration)	5.9	9.2
bsAb from exchange reaction between anti-bio 2/3-IgG (MHCFcRP-knob-E357K) and anti-fluos 2/3-IgG (MHCFcRP-hole-K370E) (bispecific antibody, Exchange product as applied in the reaction mix; also called bio fluos) heavy 1: not shown light 1: DIQMTQSPSSLSASVGDRVTITCRASGNIHNYLSWYQQKPGKVPKLLIYSAKTLADGVPSRFSGSGSGTDFTLTISSLQPEDVATYYCQHFWSSIYTFGQGTKLEIKRTVAAPSVFIFPPSDEQLKSGTASVVCLLNNFYPREAKVQWKVDNALQSGNSQESVTEQDSKDSTYSLSSTLTLSKADYEKHKVYACEVTHQGLSSPVTKSFNRGEC heavy 2: not shown light 2: DIVMTQTPLSLSVTPGQPASISCKSSQSLVHSNGNTYLRWYLQKPGQSPKVLIYKVSNRVSGVPDRFSGSGSGTDFTLKISRVEAEDVGVYYCSQSTHVPWTFGQGTKLEIKRTVAAPSVFIFPPSDEQLKSGTASVVCLLNNFYPREAKVQWKVDNALQSGNSQESVTEQDSKDSTYSLSSTLTLSKADYEKHKVYACEVTHQGLSSPVTKSFNRGEC	no binding (tested: 1.3 µM input molecule concentration)	7.2	9
bsAb from exchange reaction between anti-dig 2/3-IgG (MHCFcRP-knob-E357K) and anti-bio 2/3-IgG (MHCFcRP-hole-K370E) (bispecific antibody, not shown: small tags and cut ends, Exchange product as applied in the reaction mix; also called dig bio) heavy 1: QVQLVESGGGLVKPGGSLRLSCAASGFTFSDYAMSWIRQAPGKGLEWVSSINIGATYIYYADSVKGRFTISRDNAKNSLYLQMNSLRAEDTAVYYCARPGSPYEYDKAYYSMAYWGQGTTVTVSSASTKGPSVFPLAPSSKSTSGGTAALGCLVKDYFPEPVTVSWNSGALTSGVHTFPAVLQSSGLYSLSSVVTVPSSSLGTQTYICNVNHKPSNTKVDKKVEPKSC light 1: not shown heavy 2: not shown light 2: DIQMTQSPSSLSASVGDRVTITCRASGNIHNYLSWYQQKPGKVPKLLIYSAKTLADGVPSRFSGSGSGTDFTLTISSLQPEDVATYYCQHFWSSIYTFGQGTKLEIKRTVAAPSVFIFPPSDEQLKSGTASVVCLLNNFYPREAKVQWKVDNALQSGNSQESVTEQDSKDSTYSLSSTLTLSKADYEKHKVYACEVTHQGLSSPVTKSFNRGEC	no binding (tested: 1.3 µM input molecule concentration)	6.2	9
bsAb from exchange reaction between anti-bio 2/3-IgG (MHCFcRP-knob-E357K) and anti-dig 2/3-IgG (MHCFcRP-hole-K370E) (bispecific antibody, not shown: small tags and cut ends, Exchange product as applied in the reaction mix; also called bio dig) heavy 1: not shown light 1: DIQMTQSPSSLSASVGDRVTITCRASGNIHNYLSWYQQKPGKVPKLLIYSAKTLADGVPSRFSGSGSGTDFTLTISSLQPEDVATYYCQHFWSSIYTFGQGTKLEIKRTVAAPSVFIFPPSDEQLKSGTASVVCLLNNFYPREAKVQWKVDNALQSGNSQESVTEQDSKDSTYSLSSTLTLSKADYEKHKVYACEVTHQGLSSPVTKSFNRGEC heavy 2: QVQLVESGGGLVKPGGSLRLSCAASGFTFSDYAMSWIRQAPGKGLEWVSSINIGATYIYYADSVKGRFTISRDNAKNSLYLQMNSLRAEDTAVYYCARPGSPYEYDKAYYSMAYWGQGTTVTVSSASTKGPSVFPLAPSSKSTSGGTAALGCLVKDYFPEPVTVSWNSGALTSGVHTFPAVLQSSGLYSLSSVVTVPSSSLGTQTYICNVNHKPSNTKVDKKVEPKSC light 2: not shown	no binding (tested: 1.3 µM input molecule concentration)	6.2	9.3
bsAb from exchange reaction between anti-dig 2/3-IgG (MHCFcRP-knob-E357K) and anti-fluos 2/3-IgG (MHCFcRP-hole-K370E) (bispecific antibody, not shown: small tags and cut ends, Exchange product as applied in the reaction mix; also called dig fluos) heavy 1: QVQLVESGGGLVKPGGSLRLSCAASGFTFSDYAMSWIRQAPGKGLEWVSSINIGATYIYYADSVKGRFTISRDNAKNSLYLQMNSLRAEDTAVYYCARPGSPYEYDKAYYSMAYWGQGTTVTVSSASTKGPSVFPLAPSSKSTSGGTAALGCLVKDYFPEPVTVSWNSGALTSGVHTFPAVLQSSGLYSLSSVVTVPSSSLGTQTYICNVNHKPSNTKVDKKVEPKSC light 1: not shown heavy 2: not shown light 2: DIVMTQTPLSLSVTPGQPASISCKSSQSLVHSNGNTYLRWYLQKPGQSPKVLIYKVSNRVSGVPDRFSGSGSGTDFTLKISRVEAEDVGVYYCSQSTHVPWTFGQGTKLEIKRTVAAPSVFIFPPSDEQLKSGTASVVCLLNNFYPREAKVQWKVDNALQSGNSQESVTEQDSKDSTYSLSSTLTLSKADYEKHKVYACEVTHQGLSSPVTKSFNRGEC	no binding (tested: 1.3 µM input molecule concentration)	6.7	9.1
bsAb from exchange reaction between anti-fluos 2/3-IgG (MHCFcRP-knob-E357K) and anti-bio 2/3-IgG (MHCFcRP-hole-K370E) (bispecific antibody, Exchange product as applied in the reaction mix; also called fluos bio) heavy 1: not shown light 1: DIVMTQTPLSLSVTPGQPASISCKSSQSLVHSNGNTYLRWYLQKPGQSPKVLIYKVSNRVSGVPDRFSGSGSGTDFTLKISRVEAEDVGVYYCSQSTHVPWTFGQGTKLEIKRTVAAPSVFIFPPSDEQLKSGTASVVCLLNNFYPREAKVQWKVDNALQSGNSQESVTEQDSKDSTYSLSSTLTLSKADYEKHKVYACEVTHQGLSSPVTKSFNRGEC heavy 2: not shown light 2: DIQMTQSPSSLSASVGDRVTITCRASGNIHNYLSWYQQKPGKVPKLLIYSAKTLADGVPSRFSGSGSGTDFTLTISSLQPEDVATYYCQHFWSSIYTFGQGTKLEIKRTVAAPSVFIFPPSDEQLKSGTASVVCLLNNFYPREAKVQWKVDNALQSGNSQESVTEQDSKDSTYSLSSTLTLSKADYEKHKVYACEVTHQGLSSPVTKSFNRGEC	no binding (tested: 1.3 µM input molecule concentration)	6.5	10.2
bsAb from exchange reaction between anti-bio 2/3-IgG (MHCFcRP-knob-E357K) and anti-PDGF 2/3-IgG (MHCFcRP-hole-K370E) (bispecific antibody, not shown: small tags and cut ends, Exchange product as applied in the reaction mix; also called bio PDGF) heavy 1: not shown light 1: DIQMTQSPSSLSASVGDRVTITCRASGNIHNYLSWYQQKPGKVPKLLIYSAKTLADGVPSRFSGSGSGTDFTLTISSLQPEDVATYYCQHFWSSIYTFGQGTKLEIKRTVAAPSVFIFPPSDEQLKSGTASVVCLLNNFYPREAKVQWKVDNALQSGNSQESVTEQDSKDSTYSLSSTLTLSKADYEKHKVYACEVTHQGLSSPVTKSFNRGEC heavy 2: EVQLVESGGGLVQPGGSLRLSCAASGFTFSSYWMSWVRQAPEKGLEWVSTISDGGGLTYYADSVKGRFTISRDNAKNSLYLQMNSLRAEDTAVYYCAESGGYTDWLFGYWGQGTLVTVSSASTKGPSVFPLAPSSKSTSGGTAALGCLVKDYFPEPVTVSWNSGALTSGVHTFPAVLQSSGLYSLSSVVTVPSSSLGTQTYICNVNHKPSNTKVDKKVEPKSC light 2: not shown	no binding (tested: 1.3 µM input molecule concentration)	6.1	10.1
bsAb from exchange reaction between anti-PDGF 2/3-IgG (MHCFcRP-knob-E357K) and anti-bio 2/3-IgG (MHCFcRP-hole-K370E) (bispecific antibody, not shown: small tags and cut ends, Exchange product as applied in the reaction mix; also called PDGF bio) heavy 1: EVQLVESGGGLVQPGGSLRLSCAASGFTFSSYWMSWVRQAPEKGLEWVSTISDGGGLTYYADSVKGRFTISRDNAKNSLYLQMNSLRAEDTAVYYCAESGGYTDWLFGYWGQGTLVTVSSASTKGPSVFPLAPSSKSTSGGTAALGCLVKDYFPEPVTVSWNSGALTSGVHTFPAVLQSSGLYSLSSVVTVPSSSLGTQTYICNVNHKPSNTKVDKKVEPKSC light 1: not shown heavy 2: not shown light 2: DIQMTQSPSSLSASVGDRVTITCRASGNIHNYLSWYQQKPGKVPKLLIYSAKTLADGVPSRFSGSGSGTDFTLTISSLQPEDVATYYCQHFWSSIYTFGQGTKLEIKRTVAAPSVFIFPPSDEQLKSGTASVVCLLNNFYPREAKVQWKVDNALQSGNSQESVTEQDSKDSTYSLSSTLTLSKADYEKHKVYACEVTHQGLSSPVTKSFNRGEC	no binding (tested: 1.3 µM input molecule concentration)	6	10.5
bsAb from exchange reaction between anti-fluos 2/3-IgG (MHCFcRP-knob-E357K) and anti-dig 2/3-IgG (MHCFcRP-hole-K370E) (bispecific antibody, not shown: small tags and cut ends, Exchange product as applied in the reaction mix; also called fluos dig) heavy 1: not shown light 1: DIVMTQTPLSLSVTPGQPASISCKSSQSLVHSNGNTYLRWYLQKPGQSPKVLIYKVSNRVSGVPDRFSGSGSGTDFTLKISRVEAEDVGVYYCSQSTHVPWTFGQGTKLEIKRTVAAPSVFIFPPSDEQLKSGTASVVCLLNNFYPREAKVQWKVDNALQSGNSQESVTEQDSKDSTYSLSSTLTLSKADYEKHKVYACEVTHQGLSSPVTKSFNRGEC heavy 2: QVQLVESGGGLVKPGGSLRLSCAASGFTFSDYAMSWIRQAPGKGLEWVSSINIGATYIYYADSVKGRFTISRDNAKNSLYLQMNSLRAEDTAVYYCARPGSPYEYDKAYYSMAYWGQGTTVTVSSASTKGPSVFPLAPSSKSTSGGTAALGCLVKDYFPEPVTVSWNSGALTSGVHTFPAVLQSSGLYSLSSVVTVPSSSLGTQTYICNVNHKPSNTKVDKKVEPKSC light 2: not shown	no binding (tested: 1.3 µM input molecule concentration)	6.3	9.4
